Experimental data from publication doi:10.1101/2023.03.09.531510.

Experiments:
Assay in all cases: protein-fragment complementation
Bzz1 = Bzz1 (UniProt P38822)
Vrp1 = Vrp1 (UniProt P37370)
Cmd1 = Cmd1 (UniProt P06787)
Yor1 = Yor1 (UniProt P53049)
Cdc3 = Cdc3 (UniProt P32457)
Syp1 = Syp1 (UniProt P25623)
Pan1 = Pan1 (UniProt P32521)
Arc15 = Arc15 (UniProt P40518)
Pkh2 = molecular target: Pkh2
Sla2 = Sla2 (UniProt P33338)
Las17 = Las17 (UniProt Q12446)
Bmh1 = Bmh1 (UniProt P29311)
Nap1 = Nap1 (UniProt P25293)
Rvs167 = Rvs167 (UniProt P39743)
Arc18 = Arc18 (UniProt Q05933)
Tdh3 = Tdh3 (UniProt P00359)
Osh2 = Osh2 (UniProt Q12451)
Hsp104 = Hsp104 (UniProt P31539)
Srv2 = Srv2 (UniProt P17555)
Sbp1 = Sbp1 (UniProt P10080)
Arc19 = Arc19 (UniProt P33204)
Sla1 = Sla1 (UniProt P32790)
Ygl242c = Ygl242c (UniProt P53066)
Pfk1 = Pfk1 (UniProt P16861)
Hek2 = Hek2 (UniProt P38199)
Arc40 = Arc40 (UniProt P38328)
Chc1 = Chc1 (UniProt P22137)
Bbc1 = Bbc1 (UniProt P47068)
Ssb2 = Ssb2 (UniProt P40150)
Sac6 = Sac6 (UniProt P32599)
Ssb1 = Ssb1 (UniProt P11484)
Ysc84 = Ysc84 (UniProt P32793)
Sfk1 = Sfk1 (UniProt P35735)
Ssz1 = Ssz1 (UniProt P38788)
Myo5 = Myo5 (UniProt Q04439)
Tif4631 = Tif4631 (UniProt P39935)
Ste20 = Ste20 (UniProt Q03497)
Cdc10 = Cdc10 (UniProt P25342)
Lsb3 = Lsb3 (UniProt P43603)
Aim21 = Aim21 (UniProt P40563)
Pab1 = Pab1 (UniProt P04147)
Mid2 = Mid2 (UniProt P36027)
Smi1 = Smi1 (UniProt P32566)
Ssa1 = Ssa1 (UniProt P10591)

Sequence of UniProt P36027 (P36027 whole entry): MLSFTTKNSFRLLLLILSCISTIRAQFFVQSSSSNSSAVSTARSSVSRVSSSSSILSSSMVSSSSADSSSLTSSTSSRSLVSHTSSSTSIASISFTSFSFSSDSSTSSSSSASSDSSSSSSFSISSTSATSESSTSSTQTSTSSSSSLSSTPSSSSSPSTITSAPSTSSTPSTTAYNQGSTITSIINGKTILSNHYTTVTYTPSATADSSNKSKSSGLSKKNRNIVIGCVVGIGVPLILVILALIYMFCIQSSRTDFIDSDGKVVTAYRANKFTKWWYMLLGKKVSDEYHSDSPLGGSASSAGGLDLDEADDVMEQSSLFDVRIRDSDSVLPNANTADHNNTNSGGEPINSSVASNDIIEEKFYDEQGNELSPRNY
Sequence of UniProt P32793 (P32793 whole entry): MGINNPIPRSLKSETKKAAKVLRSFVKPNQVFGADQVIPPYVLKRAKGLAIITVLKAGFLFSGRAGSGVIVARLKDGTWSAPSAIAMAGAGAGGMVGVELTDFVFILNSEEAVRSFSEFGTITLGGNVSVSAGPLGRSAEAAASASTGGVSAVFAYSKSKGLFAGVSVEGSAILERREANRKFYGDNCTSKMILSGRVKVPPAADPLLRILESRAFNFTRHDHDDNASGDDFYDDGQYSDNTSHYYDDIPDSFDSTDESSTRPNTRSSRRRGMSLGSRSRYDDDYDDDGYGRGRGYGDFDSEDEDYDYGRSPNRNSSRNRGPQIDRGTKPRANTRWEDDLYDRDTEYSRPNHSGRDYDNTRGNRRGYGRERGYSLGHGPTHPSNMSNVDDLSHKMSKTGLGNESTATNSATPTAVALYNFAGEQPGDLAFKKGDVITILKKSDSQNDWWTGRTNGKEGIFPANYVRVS
Sequence of UniProt P17555 (P17555 whole entry): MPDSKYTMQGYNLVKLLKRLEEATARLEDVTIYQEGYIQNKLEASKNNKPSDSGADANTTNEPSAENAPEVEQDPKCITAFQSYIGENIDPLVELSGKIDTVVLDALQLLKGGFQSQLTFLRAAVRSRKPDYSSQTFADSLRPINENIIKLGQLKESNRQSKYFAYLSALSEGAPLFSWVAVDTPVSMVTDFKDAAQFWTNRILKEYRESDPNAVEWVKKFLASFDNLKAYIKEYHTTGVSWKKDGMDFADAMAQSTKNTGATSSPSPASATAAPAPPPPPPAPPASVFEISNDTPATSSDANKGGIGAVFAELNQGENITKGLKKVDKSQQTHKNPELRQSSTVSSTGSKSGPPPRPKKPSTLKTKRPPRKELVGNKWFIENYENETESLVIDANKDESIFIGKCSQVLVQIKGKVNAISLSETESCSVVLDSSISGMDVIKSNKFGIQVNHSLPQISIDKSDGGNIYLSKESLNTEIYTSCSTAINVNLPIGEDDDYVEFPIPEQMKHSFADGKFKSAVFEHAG
Sequence of UniProt P04147 (P04147 whole entry): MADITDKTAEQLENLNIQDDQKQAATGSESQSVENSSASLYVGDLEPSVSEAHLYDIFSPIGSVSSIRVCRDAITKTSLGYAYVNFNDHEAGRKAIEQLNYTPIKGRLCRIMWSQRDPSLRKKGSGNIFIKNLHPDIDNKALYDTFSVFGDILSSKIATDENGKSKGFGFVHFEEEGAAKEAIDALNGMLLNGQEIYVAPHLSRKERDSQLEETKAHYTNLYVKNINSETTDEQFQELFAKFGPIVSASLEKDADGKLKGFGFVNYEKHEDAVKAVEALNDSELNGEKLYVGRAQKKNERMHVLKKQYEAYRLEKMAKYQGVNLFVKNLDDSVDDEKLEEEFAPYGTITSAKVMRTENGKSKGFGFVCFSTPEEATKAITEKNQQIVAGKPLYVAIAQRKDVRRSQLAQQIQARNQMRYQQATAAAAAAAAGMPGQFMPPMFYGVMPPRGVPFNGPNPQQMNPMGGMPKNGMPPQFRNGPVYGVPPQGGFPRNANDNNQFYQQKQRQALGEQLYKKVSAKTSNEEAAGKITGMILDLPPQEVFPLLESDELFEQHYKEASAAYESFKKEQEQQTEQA
Sequence of UniProt P33204 (P33204 whole entry): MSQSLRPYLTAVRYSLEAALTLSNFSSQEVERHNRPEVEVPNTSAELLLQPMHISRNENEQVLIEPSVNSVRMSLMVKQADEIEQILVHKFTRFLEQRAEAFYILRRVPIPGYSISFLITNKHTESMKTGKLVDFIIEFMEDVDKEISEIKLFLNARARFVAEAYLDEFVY
Sequence of UniProt P32457 (P32457 whole entry): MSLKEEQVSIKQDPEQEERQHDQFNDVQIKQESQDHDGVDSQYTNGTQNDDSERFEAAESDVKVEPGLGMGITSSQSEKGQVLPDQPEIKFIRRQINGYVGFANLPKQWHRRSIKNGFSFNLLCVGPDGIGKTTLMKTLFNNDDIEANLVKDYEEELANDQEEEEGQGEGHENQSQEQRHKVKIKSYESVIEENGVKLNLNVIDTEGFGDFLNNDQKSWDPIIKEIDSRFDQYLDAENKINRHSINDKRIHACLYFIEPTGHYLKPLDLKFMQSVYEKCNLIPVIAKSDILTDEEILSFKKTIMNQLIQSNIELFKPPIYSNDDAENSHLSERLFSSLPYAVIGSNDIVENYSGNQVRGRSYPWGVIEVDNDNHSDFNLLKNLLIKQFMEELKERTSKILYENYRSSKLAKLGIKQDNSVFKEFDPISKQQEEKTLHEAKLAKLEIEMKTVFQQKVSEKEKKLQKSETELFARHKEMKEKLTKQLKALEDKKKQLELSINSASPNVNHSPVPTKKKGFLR
Sequence of UniProt P06787 (P06787 whole entry): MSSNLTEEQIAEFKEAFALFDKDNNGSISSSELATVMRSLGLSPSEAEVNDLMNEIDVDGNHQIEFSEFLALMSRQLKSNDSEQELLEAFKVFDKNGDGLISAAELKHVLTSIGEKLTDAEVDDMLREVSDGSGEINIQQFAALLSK
Sequence of UniProt P39743 (P39743 whole entry): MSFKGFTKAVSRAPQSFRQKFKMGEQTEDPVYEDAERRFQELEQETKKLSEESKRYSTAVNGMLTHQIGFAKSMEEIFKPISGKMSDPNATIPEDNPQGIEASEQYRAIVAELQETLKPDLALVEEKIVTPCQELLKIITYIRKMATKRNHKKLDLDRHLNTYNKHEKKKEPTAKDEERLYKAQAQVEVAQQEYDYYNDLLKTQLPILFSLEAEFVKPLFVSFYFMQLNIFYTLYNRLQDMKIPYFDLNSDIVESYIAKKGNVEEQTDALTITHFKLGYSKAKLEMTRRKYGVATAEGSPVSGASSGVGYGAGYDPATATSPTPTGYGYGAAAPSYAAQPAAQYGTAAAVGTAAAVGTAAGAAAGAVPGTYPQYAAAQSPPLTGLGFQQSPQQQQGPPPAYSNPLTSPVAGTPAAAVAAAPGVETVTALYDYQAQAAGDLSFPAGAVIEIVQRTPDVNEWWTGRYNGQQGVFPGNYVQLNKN
Sequence of UniProt P32566 (P32566 whole entry): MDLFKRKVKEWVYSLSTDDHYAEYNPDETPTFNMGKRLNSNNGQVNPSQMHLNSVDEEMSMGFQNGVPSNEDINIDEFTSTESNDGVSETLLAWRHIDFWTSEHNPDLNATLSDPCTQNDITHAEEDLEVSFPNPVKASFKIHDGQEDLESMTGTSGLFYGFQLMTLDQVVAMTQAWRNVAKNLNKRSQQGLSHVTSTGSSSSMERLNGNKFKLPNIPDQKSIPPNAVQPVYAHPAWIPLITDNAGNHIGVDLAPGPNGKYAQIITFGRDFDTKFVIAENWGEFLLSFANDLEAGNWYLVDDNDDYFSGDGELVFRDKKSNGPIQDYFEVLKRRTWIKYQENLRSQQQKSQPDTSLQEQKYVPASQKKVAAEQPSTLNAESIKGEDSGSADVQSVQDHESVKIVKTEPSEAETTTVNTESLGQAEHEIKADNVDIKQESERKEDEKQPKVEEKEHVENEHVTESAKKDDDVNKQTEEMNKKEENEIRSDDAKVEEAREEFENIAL
Sequence of UniProt P29311 (P29311 whole entry): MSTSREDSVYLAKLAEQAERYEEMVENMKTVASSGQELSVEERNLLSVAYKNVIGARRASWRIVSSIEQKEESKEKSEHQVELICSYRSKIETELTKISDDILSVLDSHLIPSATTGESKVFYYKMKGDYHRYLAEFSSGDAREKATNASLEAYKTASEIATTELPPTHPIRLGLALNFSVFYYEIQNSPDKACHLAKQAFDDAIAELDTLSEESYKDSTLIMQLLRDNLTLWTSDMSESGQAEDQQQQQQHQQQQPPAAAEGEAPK
Sequence of UniProt P43603 (P43603 whole entry): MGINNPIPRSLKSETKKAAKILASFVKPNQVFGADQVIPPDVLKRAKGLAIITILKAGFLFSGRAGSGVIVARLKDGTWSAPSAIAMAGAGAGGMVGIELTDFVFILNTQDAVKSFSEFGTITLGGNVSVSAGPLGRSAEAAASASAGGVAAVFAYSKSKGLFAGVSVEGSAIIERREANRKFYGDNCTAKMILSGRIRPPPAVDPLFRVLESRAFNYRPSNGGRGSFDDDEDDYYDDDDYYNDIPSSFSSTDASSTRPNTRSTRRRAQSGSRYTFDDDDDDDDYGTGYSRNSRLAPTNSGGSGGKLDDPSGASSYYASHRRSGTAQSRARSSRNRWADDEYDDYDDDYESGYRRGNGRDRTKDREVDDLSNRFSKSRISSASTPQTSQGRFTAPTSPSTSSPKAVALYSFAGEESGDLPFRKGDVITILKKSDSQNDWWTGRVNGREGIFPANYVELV
Sequence of UniProt P25342 (P25342 whole entry): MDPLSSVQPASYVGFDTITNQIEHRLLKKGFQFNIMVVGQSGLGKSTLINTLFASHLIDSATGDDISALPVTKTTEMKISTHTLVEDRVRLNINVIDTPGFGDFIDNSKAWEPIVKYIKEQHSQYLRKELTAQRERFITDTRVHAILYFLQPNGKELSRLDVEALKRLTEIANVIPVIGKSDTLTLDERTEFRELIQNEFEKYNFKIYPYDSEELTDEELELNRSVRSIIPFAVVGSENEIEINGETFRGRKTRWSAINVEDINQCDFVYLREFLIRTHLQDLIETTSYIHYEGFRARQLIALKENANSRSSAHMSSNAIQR

Substance: Myo5 with SH3 AncB (from UniProt Q04439)
- interaction score (Bzz1): 0.818
- interaction score (Vrp1): 0.919
- interaction score (Cmd1): 0.497
- interaction score (Yor1): 0.488
- interaction score (Cdc3): 0.515
- interaction score (Syp1): 0.564
- interaction score (Pan1): 0.926
- interaction score (Arc15): 0.898
- interaction score (Pkh2): 0.0795
- interaction score (Sla2): 0.646
- interaction score (Las17): 0.875
- interaction score (Bmh1): 0.823
- interaction score (Nap1): 0.52
- interaction score (Rvs167): 0.567
- interaction score (Arc18): 0.878
- interaction score (Tdh3): 0.97
- interaction score (Osh2): 0.755
- interaction score (Hsp104): 0.767
- interaction score (Srv2): 0.649
- interaction score (Sbp1): 0.832
- interaction score (Arc19): 0.771
- interaction score (Sla1): 0.568
- interaction score (Ygl242c): 0.942
- interaction score (Pfk1): 0.867
- interaction score (Hek2): 0.417
- interaction score (Arc40): 0.964
- interaction score (Chc1): 0.603
- interaction score (Bbc1): 0.758
- interaction score (Ssb2): 0.932
- interaction score (Sac6): 0.823
- interaction score (Ssb1): 0.941
- interaction score (Ysc84): 0.505
- interaction score (Sfk1): 0.733
- interaction score (Ssz1): 0.834
- interaction score (Myo5): 0.901
- interaction score (Tif4631): 0.672
- interaction score (Ste20): 0.482
- interaction score (Cdc10): 0.416
- interaction score (Lsb3): 0.637
- interaction score (Aim21): 0.755
- interaction score (Pab1): 0.797
- interaction score (Mid2): 0.854
- interaction score (Smi1): 0.562

Substance: Myo5 with SH3 SH3-depleted (from UniProt Q04439)
- interaction score (Bzz1): 0.34
- interaction score (Vrp1): 0.606
- interaction score (Cmd1): 0.27
- interaction score (Yor1): 0.144
- interaction score (Cdc3): 0.288
- interaction score (Syp1): 0.199
- interaction score (Pan1): 0.616
- interaction score (Arc15): 0.877
- interaction score (Sla2): 0.341
- interaction score (Las17): 0.367
- interaction score (Bmh1): 0.821
- interaction score (Nap1): 0.514
- interaction score (Rvs167): 0.0148
- interaction score (Arc18): 0.775
- interaction score (Tdh3): 0.969
- interaction score (Osh2): 0.0609
- interaction score (Hsp104): 0.771
- interaction score (Srv2): 0.398
- interaction score (Sbp1): 0.852
- interaction score (Arc19): 0.469
- interaction score (Sla1): 0.27
- interaction score (Ygl242c): 0.95
- interaction score (Pfk1): 0.874
- interaction score (Hek2): 0.342
- interaction score (Arc40): 0.949
- interaction score (Chc1): 0.599
- interaction score (Bbc1): 0.139
- interaction score (Ssb2): 0.946
- interaction score (Sac6): 0.766
- interaction score (Ssb1): 0.94
- interaction score (Ysc84): 0.281
- interaction score (Sfk1): 0.219
- interaction score (Ssz1): 0.853
- interaction score (Myo5): 0.763
- interaction score (Tif4631): 0.689
- interaction score (Ste20): 0.28
- interaction score (Cdc10): 0.289
- interaction score (Lsb3): 0.339
- interaction score (Aim21): 0.454
- interaction score (Pab1): 0.813
- interaction score (Mid2): 0.79
- interaction score (Smi1): 0.547

Substance: Myo5 with SH3 swap-optMyo3 (from UniProt Q04439)
- interaction score (Bzz1): 0.835
- interaction score (Vrp1): 0.92
- interaction score (Cmd1): 0.458
- interaction score (Yor1): 0.481
- interaction score (Cdc3): 0.457
- interaction score (Syp1): 0.543
- interaction score (Pan1): 0.936
- interaction score (Arc15): 0.903
- interaction score (Pkh2): 0.095
- interaction score (Sla2): 0.664
- interaction score (Las17): 0.879
- interaction score (Bmh1): 0.833
- interaction score (Nap1): 0.482
- interaction score (Rvs167): 0.53
- interaction score (Arc18): 0.88
- interaction score (Tdh3): 0.971
- interaction score (Osh2): 0.762
- interaction score (Hsp104): 0.774
- interaction score (Srv2): 0.656
- interaction score (Sbp1): 0.835
- interaction score (Arc19): 0.78
- interaction score (Sla1): 0.56
- interaction score (Ygl242c): 0.944
- interaction score (Hek2): 0.401
- interaction score (Arc40): 0.97
- interaction score (Chc1): 0.598
- interaction score (Bbc1): 0.767
- interaction score (Ssb2): 0.935
- interaction score (Sac6): 0.836
- interaction score (Ssb1): 0.942
- interaction score (Ysc84): 0.475
- interaction score (Sfk1): 0.746
- interaction score (Myo5): 0.907
- interaction score (Tif4631): 0.689
- interaction score (Ste20): 0.425
- interaction score (Cdc10): 0.379
- interaction score (Lsb3): 0.643
- interaction score (Aim21): 0.767
- interaction score (Pab1): 0.795
- interaction score (Mid2): 0.868
- interaction score (Smi1): 0.562
- interaction score (Ssa1): 0.91
